Tests used:
SapA = biological target: T1, SapA (Haemophilus influenzae, UniProt Q4QL73); experiment: ITC (stoichiometry fixed to […]), crystal structure by hemin soaking ([…] Å), native PAGE shift; type: binding
T1 construct: residues 33 to 560, without the predicted signal peptide

[1] = biological target: T2, SapA (nontypeable Haemophilus influenzae 86-028NP) (UniProt Q4QL73); experiment: EMSA (agarose, decrease of rRNA bands)
T2 sequence: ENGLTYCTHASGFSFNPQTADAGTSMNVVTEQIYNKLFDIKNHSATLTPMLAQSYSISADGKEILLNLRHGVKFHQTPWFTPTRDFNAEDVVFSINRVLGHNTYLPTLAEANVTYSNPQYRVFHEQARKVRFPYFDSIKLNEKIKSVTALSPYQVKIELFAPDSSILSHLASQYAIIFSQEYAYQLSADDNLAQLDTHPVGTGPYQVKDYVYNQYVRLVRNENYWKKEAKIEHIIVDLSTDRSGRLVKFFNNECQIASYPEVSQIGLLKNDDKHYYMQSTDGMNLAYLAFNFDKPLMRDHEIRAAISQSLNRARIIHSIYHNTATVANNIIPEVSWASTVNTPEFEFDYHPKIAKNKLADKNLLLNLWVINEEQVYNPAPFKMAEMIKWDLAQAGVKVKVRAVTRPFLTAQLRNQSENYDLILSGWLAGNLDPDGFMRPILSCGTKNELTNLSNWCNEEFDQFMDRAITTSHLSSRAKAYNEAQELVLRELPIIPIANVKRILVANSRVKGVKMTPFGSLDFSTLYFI

[2] = test system: SapA Q85S R101S (nontypeable Haemophilus influenzae 86-028NP); experiment: EMSA (agarose, decrease of rRNA bands)
[3] = test system: SapA R101S (nontypeable Haemophilus influenzae 86-028NP); experiment: EMSA (agarose, decrease of rRNA bands)

Compound | Kd (SapA) | Kd [1] | Kd [2] | Kd [3]
C=CC1=C(C)C2=Cc3c(C=C)c(C)c4[n]3[Fe][n]3c(c(C)c(CCC(=O)O)c3=CC3=NC(=C4)C(C)=C3CCC(=O)O)=CC1=N2 [heme] | 282 ± 18.3 µM | – | – | –
E. coli DH5alpha rRNA (16S + 23S bands of total RNA) | – | 4.4 µM | 23 µM | 7.7 µM

— publication PMC8519434, “The structure of nontypeable Haemophilus influenzae SapA in a closed conformation reveals a constricted ligand-binding cavity and a novel RNA binding motif” (PLoS ONE, 2021)
